Results reported in PMC6312924.

How the values were obtained:
[1] = target: HA-tagged Atp1a3 T705A (mouse) (UniProt Q8VCE0); test: co-IP; HEK 293T cells co-transfected with HA-tagged Atp1a3 (WT, TA or TD) and YFP-β1 or YFP-β2; α3 precipitated with anti-HA beads (clone 3F10) 2 h at 4°C in IP buffer (20 mM Tris pH 8.0, 150 mM NaCl, 1% NP40, 10% glycerol); β detected with a GFP antibody; band densitometry normalised to WT
[2] = target: HA-tagged Atp1a3 T705D (mouse) (UniProt Q8VCE0); test: as above

Substance | co-precipitated higher (complex-glycan) β band, relative intensity normalized to WT (normalized to WT) [1] | co-precipitated lower (intracellular) β band, relative intensity normalized to WT (normalized to WT) [1] | co-precipitated higher (complex-glycan) β band, relative intensity normalized to WT (normalized to WT) [2] | co-precipitated lower (intracellular) β band, relative intensity normalized to WT (normalized to WT) [2]
YFP-tagged Na,K-ATPase β2 subunit (human) (from UniProt P14415 1-290) (natural protein) | 16.3 | 82.7 | 2.81 | 80.5
YFP-tagged Na,K-ATPase β1 subunit (rat) (from UniProt P07340 1-304) (natural protein) | 58.3 | 101 | 6.59 | 95
